Measurements from the supplement of paper PMC9170038.

System: MS2 coat protein
Experiment: apparent KD of MS2 coat protein; designed switch direction (-1 OFF switch, 1 ON switch): -1; higher = weaker reporter binding
Method in brief: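 The apparent KD reported per design is the median over clusters of curve fits to normalised cluster fluorescence. The RNA switches were transcribed on Illumina chips by stalled E. coli RNA polymerase. SNAP-549-labelled MS2 coat protein was titrated from 0.7 or 1.5 nM, doubling up to 3 µM, in Tris-HCl pH 7.5 buffer containing KCl, MgCl2, BSA, DTT, tRNA and Tween-20, with no input, 200 uM small-molecule ligand, or an oligonucleotide input.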

[1] = Eterna round: R95, input ligand: microRNA oligo, concentration not stated
[2] = input ligand: microRNA oligo, concentration not stated
[3] = Eterna round: R95, input ligand: FMN 200 uM
[4] = Eterna round: R95, input ligand: none

Sequence | apparent KD of MS2 coat protein (input ligand: FMN 200 uM) [nM] | apparent KD of MS2 coat protein (input ligand: none) [nM] | apparent KD of MS2 coat protein [1] [nM] | apparent KD of MS2 coat protein [2] [nM] | apparent KD of MS2 coat protein [3] [nM] | apparent KD of MS2 coat protein [4] [nM]
UCCUCACAUGAGGAUCACCCAUGUUAGGAUAUUUAAUAGCGCGAAAGACAGUUCUGUAAGAGAAGGAACUGGGC [Edarti] (Eterna round: R97, puzzle: Exclusion 1) | 14.6 | 15 |  |  |  | 
AGUAACAGAGGAUAUACUAUUUUAUGUGUUUGUUAUUUUGAACAUGAGGAUCACCCAUGUAGAAGGCUGAAUAA [JMF 93] (puzzle: Exclusion 2) |  |  | 24 |  |  | 
UUUCUCUGGGCGUCUUCUUACAUGAGGAUCACCCAUGUUUCGCAGGAUAUGCUAUAGUGUUAGAUGCAGAAGGGCGUUUGUUUU [JR_ExcNG3_Sub079] (Eterna round: R96, puzzle: Exclusion NG 3) | 262 | 92.5 |  | 85.8 |  | 
CGUAUGUGAGGAUAUGGUCUCGAUGACAUGAGGAUCACCCAUGUAACAUGGGACUUGUGACUAGAAGGCACUAACG [JR_Ex5_Sub023] (Eterna round: R97, puzzle: Exclusion 5) | 29.1 | 17.4 |  |  |  | 
AAUAACAGAGGAUAUACUAUUUUAUGUGUUUGUUAUUUUGAACAUGAGGAUCACCCAUGUAGAAGGCUGAUUGA [JMF 77] (puzzle: Exclusion 2) |  |  | 41.1 |  |  | 
UUAUUAUAUGAAGGAUAUACUUAACAUGAGGAUCACCCAUGUGGUGUUGUGAGUGAGUGAGUUUAGUAGAAGGUCAAUUAUUUU [JMF's solution 28] (Eterna round: R96, puzzle: Exclusion NG 2) | 833 | 335 |  | 287 |  | 
GAUCGUUUAGAGGAUAUCGUGCUAAACAUUACAUGAGAAGGCUAGACAUGAGGAUCACCCAUGUAUGCUCGUGA [Exclusion 6 - 8:b] (puzzle: Exclusion 6) |  |  | 14.8 |  |  | 
AGAGAAUACUCAGGAUAUGUGAAUAGAUAGAGAACAGAAGGGAGACAUGAGGAUCACCCAUGUGAAGUCUUGAGGCUGCAUGGA [Prohibition 23 - Jieux - Exclusion NG 1] (Eterna round: R96, puzzle: Exclusion NG 1) | 403 | 337 |  | 408 |  | 
AGGUGUAGAGGAUAUCUCUUCUCUCACAUGAGGAUCACCCAUGUCCUAAAGUCCUAGGAGAGAGAAGGCUACACCA [Omei Ex5 D3] (Eterna round: R97, puzzle: Exclusion 5) | 230 | 82.8 |  |  |  | 
AUAAGCCCGGCAGGAUAUCACAGGUUGCCGGGUAUCAACAUGAGGAUCACCCAUGUACACCUGCUUGAGAAGGGCCCAAGGGCG [Inarza] (Eterna round: R96, puzzle: Exclusion NG 2) | 163 | 80.3 |  | 69.6 |  | 
GCCCGUGGGCAAGGAUAUCCUACGCUGUUCUGGUUCGUGUCUGUCACAUGAGGAUCACCCAUGUGGGAGAAGGUGCAUUAGGGU [Design 54] (Eterna round: R96, puzzle: Exclusion NG 2) | 16.7 | 16.8 |  | 12.3 |  | 
AGUCGAAAGACAAAAACAGACAUGAGGAUCACCCAUGUAAAGGGUGAACAAGCCACCCGCUCGUCUUAAAAAAAAAA [Mat - Sensor v2 - JL mod - D25] (Eterna round: R96, puzzle: Sensor v2, turn-off variant) | 136 | 114 |  | 69.2 |  | 
UAGGAGUCAGGAUAUGCGAGAGAUUGAAGUAUGGGAAGUGAGCAGAAGGGACAUGAGGAUCACCCAUGUGAGAA [JR_Exclu4_Sub094] (puzzle: Exclusion 4) |  |  | 46.8 |  | 52.1 | 45
UUAAAGUCAGGAUAUACAUGAGGAUCACCCAUGUAAAAUUUUAAUUUAAUUUUAAGGUGUAGAAGGGACAAUUU [Ex3 #2] (Eterna round: R97, puzzle: Exclusion 3) | 29.8 | 31.1 |  |  |  | 
GGAUCGAGUGUGAGGAUAUGCAGGUCCUUGGAUCUGCAGAAGGCACAUGAGGAUCACCCAUGUGAUCAAGAUCC [Mat - Exclusion 4 - Eli Mod - D47] (Eterna round: R97, puzzle: Brourd's mod of Exclusion 4) | 36.6 | 777 |  |  |  | 
UUUAAUUUUUUUUUUUUACAAGCUUUUUGCUCGUCUUAUACAUGAGGAUCACCCAUGUAGGUGAGGGAUAAAUUAUC [JMF 43] (puzzle: Sensor v3, turn-off variant 2) |  |  | 150 |  | 29.1 | 27.3
AUAAUGUCAGGAUAUCGAACUUACUACCUCGGUAGUAAGUUCGAGAAGGGACAUGAGGAUCACCCAUGUGAUCA [E4/1-A5] (Eterna round: R97, puzzle: Exclusion 4) | 68.5 | 195 |  |  |  | 

Sequence | apparent KD of MS2 coat protein (input ligand: FMN 200 uM) [nM] | apparent KD of MS2 coat protein (input ligand: none) [nM] | apparent KD of MS2 coat protein [1] [nM] | apparent KD of MS2 coat protein [2] [nM] | apparent KD of MS2 coat protein [3] [nM] | apparent KD of MS2 coat protein [4] [nM]
CCAGGCUGUGUGAGGAUAUGCUGGUCCUUGGAUCAGCAGAAGGCACAUGAGGAUCACCCAUGUGAAUAGCUUGG [JL bmx4 3.26] (puzzle: Brourd's mod of Exclusion 4) |  |  | 15.8 |  |  | 
GGAGGAAGAGAGGAUAUGCGCGCAAGGAGCUUAGCAGAAGGUUCAACAUGAGGAUCACCCAUGUAUGAUCCUCA [AK-MS2ROC-r4-exclusion6-5] (Eterna round: R97, puzzle: Exclusion 6) | 341 | 318 |  |  |  | 
CUGUGCACGCUGCGAUCCUACAUGAGGAUCACCCAUGUGGUCUGGUGGCGUGGGUCACCGGACUUGGCUCGUCUUGG [salish99_S_TOV1_R5_078] (Eterna round: R97, puzzle: Sensor, turn-off variant 1) | 129 | 150 |  |  |  | 
GACUAAACACGAGGAUAUGCCUGGGAAGAACAGGCAGAAGGCGUGACAUGAGGAUCACCCAUGUAGCCGGGCUAUUCUCGUACG [Tirearerar] (Eterna round: R96, puzzle: Exclusion NG 1) | 30.8 | 30.3 |  | 24.7 |  | 
CAAUGACAUGAGGAUCACCCAUGUGAGGAUAUGGAGCGCGACCGCGCGGUCGCGUACACCAGAAGGCGCAGGAA [1st #69] (Eterna round: R97, puzzle: Exclusion 1) | 59.7 | 29.4 |  |  |  | 
GACAUCGCAGGAUAUUAGAGUUUUUACAUGAGGAUCACCCAUGUUAAUUGGGUUAAUGUCUAAGAAGGGCGAUGUC [JR_EX5_Sub015] (Eterna round: R97, puzzle: Exclusion 5) | 113 | 49.4 |  |  |  | 
UUAUUGUGAGGAUAUAUAUGCAGUAAUCCUUUAAAUUUAUAACUUGAGGAUCACCCAAGUAGAAGGCGCGAUAU [JR_Ex2_Sub055] (Eterna round: R97, puzzle: Exclusion 2) | 33 | 24.9 |  |  |  | 
UAUGUUAGCACAGGAUAUUGUUAUUAUUUAAUUCAAGAAGGGUGUACAUGAGGAUCACCCAUGUUAUGGUUUUAUCUUUUACAA [JR_ExcNG1_Sub013] (Eterna round: R96, puzzle: Exclusion NG 1) |  |  |  | 957 |  | 
AGUACUCACACGAAAGUGUUAGUACAAUAAGCUUGUGAAACAUGAGGAUCACCCAUGUCCUCAUAAGCUCGUCUUAU [salish99_TOv2_r3_018] (puzzle: Sensor v3, turn-off variant 2) |  |  | 1380 |  | 17.6 | 17.1
CUUGAGUGACAAGCUUUUUGCUCGUCUGUUAUUGAUGCUACAUGAGGAUCACCCAUGUUUAAGAUGUGUGAGGAUGG [JR_SV3TOV2_Sub054] (puzzle: Sensor v3, turn-off variant 2) |  |  | 48.9 |  | 36.7 | 35.6
CGGUGACAUGAGGAUCACCCAUGUCAGGAUAUCCAGGUCGACAAUGAGCUGUACGAUUGGAGAAGGGAUACGGG [EX1 C.9] (Eterna round: R97, puzzle: Exclusion 1) | 20.6 | 23.7 |  |  |  | 
UUUUUAUAUGAAGGAUAUACUUAACAUGAGGAUCACCCAUGUGGUGUUGUGAGUGAGUGAGUUUAGUAGAAGGUCAAUUAUUUC [JMF's solution 17] (Eterna round: R96, puzzle: Exclusion NG 2) | 537 | 549 |  | 292 |  | 
ACAUGAGGAUCACCCAUGUGCACGUAAUGGCUCAUGUAGAGUGAGGAUAUGCGUGGCGAACUCGCGCAGAAGGCACAAGACUGG [Deportation 19 - Jieux - Exclusion NG 3] (Eterna round: R96, puzzle: Exclusion NG 3) | 88.8 | 82.5 |  | 65.9 |  | 
AAAUAAUAGAUAAAAUAAAACAUGAGGAUCACCCAUGUGGGAUGUUGAGGGUGAAACAAGCUUUUUGCUCGUCUUAU (puzzle: Sensor v3, turn-off variant 1) |  |  | 502 |  | 105 | 139
AGUACUAACACGAAAGUGUUAGUUCAAUAAGCUUGUGAAACAUGAGGAUCACCCAUGUCCUCAUAAGCUCGUCUUAU [salish99_TOv2_r3_040] (puzzle: Sensor v3, turn-off variant 2) |  |  | 856 |  | 15.8 | 15
CUUUUGUGAGGAUAUCAGUAGUAAAAAAAUUAAAUUACUACUGAGAAGGCACAUGAGGAUCACCCAUGUUCCUC [salish99_ex4_r3_022] (puzzle: Exclusion 4) |  |  | 36.4 |  |  | 
UUUUUAAAUGAAGGAUAUACUUAACAUGAGGAUCACCCAUGUGGUGUUGUGAGUGAGUGAGUUUAGUAGAAGGUCAAUUAUUUU [JMF's solution 20] (Eterna round: R96, puzzle: Exclusion NG 2) | 1020 | 288 |  | 287 |  | 
